Measured values: patent US20120034215A1 (Daiichi Sankyo, published 2012)

T1: cynomolgus monkey MST1R with N-terminal Flag tag, expressed on HEK293T cells (cynomolgus monkey, UniProt Q04912 27-1400 (human entry))
T1 construct: ORF cloned excluding the signal peptide region; also called cynomolgus MST1R; not shown: N-terminal Flag tag from vector pFLAG-myc-CMV-19 (Sigma)
T1 chain: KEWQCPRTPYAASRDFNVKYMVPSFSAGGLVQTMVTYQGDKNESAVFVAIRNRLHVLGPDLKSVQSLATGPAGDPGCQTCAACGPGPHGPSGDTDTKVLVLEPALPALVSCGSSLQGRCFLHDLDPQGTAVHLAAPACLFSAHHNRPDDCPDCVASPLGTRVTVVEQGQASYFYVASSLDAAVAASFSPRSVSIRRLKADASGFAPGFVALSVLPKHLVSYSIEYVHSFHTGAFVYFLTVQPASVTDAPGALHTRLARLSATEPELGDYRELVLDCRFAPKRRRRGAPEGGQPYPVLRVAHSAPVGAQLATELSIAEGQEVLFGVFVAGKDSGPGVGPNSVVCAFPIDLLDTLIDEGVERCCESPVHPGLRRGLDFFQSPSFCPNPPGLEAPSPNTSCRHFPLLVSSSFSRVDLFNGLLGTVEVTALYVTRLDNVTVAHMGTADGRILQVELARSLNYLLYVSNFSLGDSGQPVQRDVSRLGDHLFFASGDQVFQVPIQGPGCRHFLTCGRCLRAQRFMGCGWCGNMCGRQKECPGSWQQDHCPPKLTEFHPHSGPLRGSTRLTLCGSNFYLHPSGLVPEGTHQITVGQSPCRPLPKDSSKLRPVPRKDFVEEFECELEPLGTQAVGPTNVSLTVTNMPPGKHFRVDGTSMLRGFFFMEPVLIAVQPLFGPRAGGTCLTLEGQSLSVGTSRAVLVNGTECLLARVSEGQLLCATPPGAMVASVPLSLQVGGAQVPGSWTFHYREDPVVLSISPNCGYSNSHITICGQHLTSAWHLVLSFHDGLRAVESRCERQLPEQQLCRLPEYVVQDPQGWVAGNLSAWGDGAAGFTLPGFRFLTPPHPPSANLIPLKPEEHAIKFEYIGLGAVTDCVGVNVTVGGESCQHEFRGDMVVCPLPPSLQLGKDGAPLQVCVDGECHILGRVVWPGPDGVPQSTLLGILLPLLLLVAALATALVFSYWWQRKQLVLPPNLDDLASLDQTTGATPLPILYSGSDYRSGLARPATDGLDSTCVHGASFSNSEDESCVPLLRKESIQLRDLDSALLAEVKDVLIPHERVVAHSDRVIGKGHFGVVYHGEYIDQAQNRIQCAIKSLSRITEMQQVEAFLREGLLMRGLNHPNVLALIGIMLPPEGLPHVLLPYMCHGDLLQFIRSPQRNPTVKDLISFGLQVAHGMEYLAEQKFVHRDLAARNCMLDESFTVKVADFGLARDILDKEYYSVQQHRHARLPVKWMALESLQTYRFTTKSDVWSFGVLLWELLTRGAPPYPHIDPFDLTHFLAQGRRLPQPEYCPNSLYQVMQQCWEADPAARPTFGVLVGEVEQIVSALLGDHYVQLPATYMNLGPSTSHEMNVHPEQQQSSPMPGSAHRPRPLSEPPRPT


Molecular target: T1, cynomolgus monkey MST1R with N-terminal …
Test: flow cytometry on transfected HEK293T cells, 2 ug/ml IgG1
Protocol: Cells (5×10⁵ cells/well) were incubated with Fab or IgG antibodies at the indicated concentrations in 50 μl FACS buffer (PBS, 5% FCS) for 60 min at 4° C. in round bottom 96-well culture plates (Corning). Cells were washed twice and then incubated with Fluorescein Isothiocyanate (FITC) conjugated detection antibody for 30 min at 4° C. Cells were washed again, resuspended in 0.3 ml FACS buffer and then analyzed by flow cytometry in a Cytomics FC500 (Beckman Coulter, Inc.). Data were analysed via FlowJo software (Tomy digital biology Co., Ltd.). Polyclonal goat anti-hMSP R IgG (R&D systems) or anti-FLAG M2 antibody (Sigma) was used as a positive control and MOR03207 (anti-lysozyme) antibody was used as a negative control.
FACS-analysis of MST1R ortholog-expressing cells: Human MST1R (cDNA nucleotide sequence is shown as GenBank Accession No: NM_{—}002447.2), cynomolgus monkey MST1R and mouse MST1R (cDNA nucleotide sequence is shown as GeneBank Accession No: NM_{—}009074.1) expression vector containing N-terminal Flag tag (pFLAG-myc-CMV-19, Sigma) were constructed. cDNA encoding cynomolgus monkey MST1R was amplified by PCR using cynomolgus monkey stomach cDNA as a template with forward and reverse primers having nucleotide sequences of SEQ ID NO: 34 and 35, respectively. By sequencing analysis of PCR product, the cynomolgus MST1R ORF nucleotide sequence was identified as shown in SEQ ID NO: 36. The corresponding amino acid sequence was shown in SEQ ID NO: 37. Then human, cynomolgus monkey and mouse MST1R ORF cDNA, excluding signal peptide regions, were amplified using respective forward and reverse primers having nucleotide sequences of SEQ ID NO: 38 and 39 (human), 40 and 41 (cynomolgus monkey), and 42 and 43 (mouse) with appropriate cloning sites and then cloned into pFLAG-myc-CMV-19. An amplified human MST1R fragment encodes amino acids corresponding to GenBank Accession No: NP_{—}002438.2 (SEQ ID NO: 45). A Mouse MST1R fragment encodes amino acids corresponding to GenBank Accession No: NP_{—}033100.1 (SEQ ID NO: 47) except for those amino acid differences at positions: 688 (Leu to Pro), 713 (Ile to Val), 714 (Ala to Gly) and 719 (Ala to Val). These expression vectors were transfected into HEK293T cells. For FACS-analysis, cells were incubated with 2 μg/ml primary antibodies followed by incubation with FITC-labeled secondary antibody as described above.

binding result	Binder
binds	MOR07923 (human IgG1) (antibody, V domains shown) VH: QVQLVESGGGLVQPGGSLRLSCAASGFTFNSYSMSWVRQAPGKGLEWVSYISSRSSTTYYADSVKGRFTISRDNSKNTLYLQMNSLRAEDTAVYYCARGYFHGMDYWGQGTLVTVSS VL: DIVLTQSPATLSLSPGERATLSCRASQSVSFDYLGWYQQKPGQAPRLLIYGASNRATGVPARFSGSGSGTDFTLTISSLEPEDFATYYCFQYLIVPFTFGQGTKVEIKR
binds	MOR07926 (human IgG1) (antibody, V domains shown) VH: QVQLVESGGGLVQPGGSLRLSCAASGFTFNSYSMSWVRQAPGKGLEWVSYISSRSSTTYYADSVKGRFTISRDNSKNTLYLQMNSLRAEDTAVYYCARGYFHGMDYWGQGTLVTVSS VL: DIVLTQSPATLSLSPGERATLSCRASQSVSFDYLGWYQQKPGQAPRLLIYGASNRATGVPARFSGSGSGTDFTLTISSLEPEDFATYYCFQALIMPFTFGQGTKVEIKR
binds	MOR07692 (human IgG1) (antibody, V domains shown) VH: QVQLVESGGGLVQPGGSLRLSCAASGFTFNSYSMSWVRQAPGKGLEWVSYISSRSSTTYYADSVKGRFTISRDNSKNTLYLQMNSLRAEDTAVYYCARGYFHGMDYWGQGTLVTVSS VL: DIVLTQSPATLSLSPGERATLSCRASQSVSFDYLGWYQQKPGQAPRLLIYGASNRATGVPARFSGSGSGTDFTLTISSLEPEDFATYYCQQYYNMPYTFGQGTKVEIKR
binds	MOR07925 (human IgG1) (antibody, V domains shown) VH: QVQLVESGGGLVQPGGSLRLSCAASGFTFNSYSMSWVRQAPGKGLEWVSYISSRSSTTYYADSVKGRFTISRDNSKNTLYLQMNSLRAEDTAVYYCARGYFHGMDYWGQGTLVTVSS VL: DIVLTQSPATLSLSPGERATLSCRASQSVSFDYLGWYQQKPGQAPRLLIYGASNRATGVPARFSGSGSGTDFTLTISSLEPEDFATYYCLQYFNPPHTFGQGTKVEIKR
binds	MOR07924 (human IgG1) (antibody, V domains shown) VH: QVQLVESGGGLVQPGGSLRLSCAASGFTFNSYSMSWVRQAPGKGLEWVSYISSRSSTTYYADSVKGRFTISRDNSKNTLYLQMNSLRAEDTAVYYCARGYFHGMDYWGQGTLVTVSS VL: DIVLTQSPATLSLSPGERATLSCRASQSVSFDYLGWYQQKPGQAPRLLIYGASNRATGVPARFSGSGSGTDFTLTISSLEPEDFATYYCQQYNINPFTFGQGTKVEIKR
